The results in this text go back to patent publication US20230038638A1, “COMPLEMENT FACTOR I-RELATED COMPOSITIONS AND METHODS” (published 2023).

In assay [1] the target is T1, C3b (human, UniProt P01024).
Assay [2] deals with T1, C3b. The source holds these as a separate data set.
The target in assay [3] is soluble human C3b (human) (UniProt P01024).
The target in assay [4] is T2, human C4b (human) (UniProt P0C0L4).
T2 sequence: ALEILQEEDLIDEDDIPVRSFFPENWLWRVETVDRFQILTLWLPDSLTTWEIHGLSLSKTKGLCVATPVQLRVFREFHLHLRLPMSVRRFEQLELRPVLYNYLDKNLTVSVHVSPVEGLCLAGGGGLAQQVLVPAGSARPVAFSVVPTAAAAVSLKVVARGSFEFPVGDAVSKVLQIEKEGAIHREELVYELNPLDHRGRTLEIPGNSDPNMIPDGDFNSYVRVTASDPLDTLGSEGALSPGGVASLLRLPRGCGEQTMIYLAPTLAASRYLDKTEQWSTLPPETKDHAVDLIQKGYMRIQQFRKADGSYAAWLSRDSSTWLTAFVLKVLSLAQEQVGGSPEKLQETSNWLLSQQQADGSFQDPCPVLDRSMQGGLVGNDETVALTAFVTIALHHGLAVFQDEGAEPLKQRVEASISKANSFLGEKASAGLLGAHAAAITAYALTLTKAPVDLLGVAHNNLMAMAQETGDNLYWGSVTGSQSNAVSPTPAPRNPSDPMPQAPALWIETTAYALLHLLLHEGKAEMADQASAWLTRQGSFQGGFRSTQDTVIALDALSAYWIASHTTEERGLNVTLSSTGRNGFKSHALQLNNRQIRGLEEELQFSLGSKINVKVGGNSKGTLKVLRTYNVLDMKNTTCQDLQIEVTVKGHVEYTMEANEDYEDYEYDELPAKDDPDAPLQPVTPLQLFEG

Assay [5] deals with T3, human C4b (human) (UniProt P0C0L5).
T3 sequence: T2 sequence with A151T, D317G, P364L, C365S, L368I, D369H, N420S, V451A, L454R, S530A

Assay [6] addresses T2, human C4b (human). This is another data set of the same source.
Assay [7] has as its target soluble human C3b (human) (UniProt P01024). The source holds these as a separate data set.
In assay [8] the target is T3, human C4b (human). The source holds these as a separate data set.

Residue numbers refer to the chain shown, from its start.

Turning to “CFI-HSA variant 456-… (SEQ ID NO: 9)-465 --> … (SEQ ID NO: 10) (human trypsin autolysis loop swap) (enzyme)”, the C3b cleavage, % Activity in assay [1] amounted to 18%. In assay [2], this substance yielded a C3b cleavage rate, kmut/kwt of 0.
As for “CFI-HSA variant 514-MDANNVT (SEQ ID NO: 13)-520 → NG (hTrypsin 200-loop swap) (enzyme)”, the C3b cleavage, % Activity in assay [1] amounted to 11%.
CFI-HSA variant D26A (enzyme): the C3b cleavage, % Activity in assay [1] was 94%. Also, the iC3b Screen Ref Fold (fold vs CFI-HSA wild type) in assay [3] came to 0.34.
Regarding CFI-HSA variant D425K (enzyme), in assay [1], the C3b cleavage, % Activity was found to be 105%. The C3b cleavage rate, kmut/kwt in assay [2] is 1. The C4b Screen Ref Fold (fold of CFI-HSA wild type) in assay [4] was 2.86. Further, the C4b Screen Ref Fold (fold vs CFI-HSA wild type) in assay [5] was 0.42. In assay [3], the iC3b Screen Ref Fold (fold of CFI-HSA wild type) was 0.11 and the iC3b Screen Ref Fold (fold vs CFI-HSA wild type) was 1.34.
Consider CFI-HSA variant E38A (enzyme), for which, in assay [1], the C3b cleavage, % Activity amounted to 79%. For the same substance, in assay [5], the C4b Screen Ref Fold (fold vs CFI-HSA wild type) is 0.09. Moreover, the iC3b Screen Ref Fold (fold vs CFI-HSA wild type) in assay [3] was 0.43.
In assay [2], CFI-HSA variant E38A + D425R (enzyme) showed a C3b cleavage rate, kmut/kwt of 1.
Substance CFI-HSA variant E457G (enzyme) gave a C3b cleavage rate, kmut/kwt in assay [2] of 3. Also, the C4b Screen Ref Fold (fold vs CFI-HSA wild type) in assay [5] was 5.37. Further, in assay [3], the iC3b Screen Ref Fold (fold vs CFI-HSA wild type) amounted to 1.58. Moreover, the C4c EC50 (nM) in assay [6] was 138 nM. In addition, the iC3b EC50 in assay [7] amounted to 11.1 nM.
In the case of “CFI-HSA variant E457G + E461Q + R462K + F464Y (mouse CFI autolysis loop swap) (enzyme)”, the C3b cleavage rate, kmut/kwt in assay [2] came out at 2.
Turning to “CFI-HSA variant E457G-E461Q-F464Y (enzyme)”, the C3b cleavage, % Activity in assay [1] was 106%.
With CFI-HSA variant E461Q (enzyme), the C3b cleavage rate, kmut/kwt in assay [2] worked out at 2. Besides, the C4b Screen Ref Fold (fold vs CFI-HSA wild type) in assay [5] is 5.47. Further, in assay [3], the iC3b Screen Ref Fold (fold vs CFI-HSA wild type) worked out at 1.94. In assay [6], this substance displayed a C4c EC50 (nM) of 121 nM. The iC3b EC50 in assay [7] came out at 12 nM.
As for CFI-HSA variant F29A (enzyme), the C3b cleavage, % Activity in assay [1] was 16%. Moreover, the C4b Screen Ref Fold (fold vs CFI-HSA wild type) in assay [5] turned out to be 0.17. Besides, the iC3b Screen Ref Fold (fold vs CFI-HSA wild type) in assay [3] came out at 0.05.
Take CFI-HSA variant K14A (enzyme): in assay [1], the C3b cleavage, % Activity came to 93%. For the same substance, the C4b Screen Ref Fold (fold vs CFI-HSA wild type) in assay [5] is 0.3. The iC3b Screen Ref Fold (fold vs CFI-HSA wild type) in assay [3] amounted to 0.73. In assay [6], this substance showed a C4c EC50 (nM) of 401 nM.
As to CFI-HSA variant K326A + R327A (enzyme), the C3b cleavage, % Activity in assay [1] turned out to be 58%. Further, in assay [2], the C3b cleavage rate, kmut/kwt is 0.
On to CFI-HSA variant L307G (enzyme), for which, in assay [1], the C3b cleavage, % Activity is 91%. Also, the C3b cleavage rate, kmut/kwt in assay [2] is 1. Further, the C4b Screen Ref Fold (fold vs CFI-HSA wild type) in assay [5] was found to be 2.85. The iC3b Screen Ref Fold (fold vs CFI-HSA wild type) in assay [3] is 0.79. Besides, in assay [6], the C4c EC50 (nM) was found to be 316 nM. In assay [7], this substance had an iC3b EC50 of 39.2 nM.
Consider CFI-HSA variant M220A + K221Q (enzyme), for which, in assay [1], the C3b cleavage, % Activity turned out to be 92%.
Turning to CFI-HSA variant N531A (enzyme), the C3b cleavage rate, kmut/kwt in assay [2] stood at 1. Besides, in assay [5], the C4b Screen Ref Fold (fold vs CFI-HSA wild type) turned out to be 0.31. The iC3b Screen Ref Fold (fold vs CFI-HSA wild type) in assay [3] stood at 1.21. The C4c EC50 (nM) in assay [6] came out at 278 nM. Besides, in assay [7], the iC3b EC50 stood at 24.3 nM.
For CFI-HSA variant N531G (enzyme), in that order: 1, 6.26, 2.1, 58.4 nM and 8.3 nM.
In assay [2], CFI-HSA variant P535A (enzyme) yielded a C3b cleavage rate, kmut/kwt of 1. Further, in assay [5], the C4b Screen Ref Fold (fold vs CFI-HSA wild type) worked out at 1.86. For the same substance, the iC3b Screen Ref Fold (fold vs CFI-HSA wild type) in assay [3] was found to be 1.01.
For the substance CFI-HSA variant R35A (enzyme), in assay [1], the C3b cleavage, % Activity was determined as 47%. In addition, the C4b Screen Ref Fold (fold vs CFI-HSA wild type) in assay [5] is 0.06. Besides, the iC3b Screen Ref Fold (fold vs CFI-HSA wild type) in assay [3] stood at 0.12.
In the case of CFI-HSA variant R557A (enzyme), the C3b cleavage, % Activity in assay [1] turned out to be 21%. In assay [2], the C3b cleavage rate, kmut/kwt came out at 0. Also, in assay [5], the C4b Screen Ref Fold (fold relative to CFI-HSA wild type) is 1.72 and the C4b Screen Ref Fold (fold vs CFI-HSA wild type) worked out at 1.74. In assay [3], the iC3b Screen Ref Fold (fold relative to CFI-HSA wild type) is -0.01 and the iC3b Screen Ref Fold (fold vs CFI-HSA wild type) turned out to be 0.04. For the same substance, in assay [6], the C4c EC50 (nM) turned out to be 327 nM. The iC3b EC50 in assay [7] was more than 500 nM.
Take “CFI-HSA variant R557A; N531D; Y403F; K504Y (enzyme)”: the C4b Screen Ref Fold (fold of CFI-HSA wild type) in assay [4] worked out at 3.81. Moreover, the iC3b Screen Ref Fold (fold of CFI-HSA wild type) in assay [3] was found to be 0.11. In assay [8], this substance registered a C4c EC50 of 38.6 nM. Moreover, in assay [7], the iC3b EC50 stood at 156 nM.
As for “CFI-HSA variant R557A; N531G; Y403F; K504Y; E457G; E461Q (enzyme)”, the C4b Screen Ref Fold (fold of CFI-HSA wild type) in assay [4] amounted to 4.28. In addition, in assay [3], the iC3b Screen Ref Fold (fold of CFI-HSA wild type) amounted to 0.36. In assay [8], this substance yielded a C4c EC50 of 22.4 nM. In assay [7], this substance showed an iC3b EC50 of 38.2 nM.
In turn, CFI-HSA variant R557A; N531M (enzyme) gave a C4b Screen Ref Fold (fold of CFI-HSA wild type) in assay [4] of 2.91. The iC3b Screen Ref Fold (fold of CFI-HSA wild type) in assay [3] was found to be 0.09. Also, the C4c EC50 in assay [8] came to 78.7 nM. For the same substance, in assay [7], the iC3b EC50 came out at 288 nM.
For “CFI-HSA variant R557A; N531M; Y403F; K504Y (enzyme)”, in that order: 3.28, 0.03, 76.3 nM and 334 nM.
“CFI-HSA variant R557A; N531M; Y403F; K504Y; E457G; E461Q (enzyme)”: the C4b Screen Ref Fold (fold of CFI-HSA wild type) in assay [4] stood at 3.97. The iC3b Screen Ref Fold (fold of CFI-HSA wild type) in assay [3] worked out at 0.21. Moreover, in assay [8], the C4c EC50 is 26.3 nM. In assay [7], this substance came in with an iC3b EC50 of 79.4 nM.
With CFI-HSA variant S250A (enzyme), the C3b cleavage, % Activity in assay [1] amounted to 82%. In addition, the C4b Screen Ref Fold (fold vs CFI-HSA wild type) in assay [5] was found to be 0.07. Further, the iC3b Screen Ref Fold (fold vs CFI-HSA wild type) in assay [3] amounted to 0.38.
CFI-HSA variant S250A + D425R (enzyme) gave a C3b cleavage rate, kmut/kwt in assay [2] of 1.
For the substance CFI-HSA variant S250L (enzyme), the C3b cleavage, % Activity in assay [1] is -4%. In assay [3], the iC3b Screen Ref Fold (fold vs CFI-HSA wild type) is 0.09.
With “CFI-HSA variant S507A (active site mutant) (enzyme)”, in assay [1], the C3b cleavage, % Activity is 0%.
For CFI-HSA variant T377G; N422K (enzyme), the C4b Screen Ref Fold (fold of CFI-HSA wild type) in assay [4] was 2.25. Also, the iC3b Screen Ref Fold (fold of CFI-HSA wild type) in assay [3] was 2.55. In assay [8], this substance yielded a C4c EC50 of 37.4 nM. The substance also returned an iC3b EC50 in assay [7] of 4.1 nM.
For “CFI-HSA variant T377G; N422K; E457G; E461Q; N531G (enzyme)”, in that order: 3.92, 0.78, 3.5 nM and 3.7 nM.
Consider CFI-HSA variant Y20A (enzyme), for which, in assay [1], the C3b cleavage, % Activity was determined as 7%. Besides, in assay [5], the C4b Screen Ref Fold (fold vs CFI-HSA wild type) stood at 0.14. Besides, the iC3b Screen Ref Fold (fold vs CFI-HSA wild type) in assay [3] amounted to 0.05.
For CFI-HSA variant Y20F (enzyme), in that order: 80%, 0.27 and 0.67.
The substance CFI-HSA variant Y20F + D425R (enzyme) gave a C3b cleavage rate, kmut/kwt in assay [2] of 1.
For “CFI-HSA variant Δ(K1-P305) (HSA-SPD) (enzyme)”, the C3b cleavage, % Activity in assay [1] turned out to be 35%.
As to “CFI-HSA variant ΔC-term (Δ558-PFISQYNV (SEQ ID NO: 14)-565) (enzyme)”, the C3b cleavage, % Activity in assay [1] is 7%. Further, the C4b Screen Ref Fold (fold vs CFI-HSA wild type) in assay [5] amounted to 0.11. Moreover, the iC3b Screen Ref Fold (fold vs CFI-HSA wild type) in assay [3] is 0.03.
